Source: patent publication US20200347144A1 (SHANGHAI HYAMAB BIOTECH, published 2020)
Numbering of substitutions follows the chain as printed.

B1: 57B3D10 (antibody, V domains shown)
VH: QVQLQESGPGLVKPSETLSLTCTVSGGSISSYYWSWIRQPPGKGLEWIGYIYYSGSTNYNPSLKSRVTISVDTSKSQFSLKLTSVTAADTAVYYCAKDSDYYGSGSYSYWYFDLWGRGTLVTVSS
VL: EIVMTQSPATLSVSPGERATLSCRASQSVSSNLAWYQQKPGQAPRLLIYGASTRAPGIPARFSGSGSGTEFTLTISSLQSEDFAVYYCQQYNNWPLTFGGGTKVEIK
notes: also called 4-1BB fully human antibody 57B3D10
B2: 119B6G5 (antibody, V domains shown)
VH: EVQLLESGGGLVQPGGSLRLSCAASGFTFSNYAMSWVRQGPGKGLEWVSTIIGSGDSTYYTDSVKGRFTISRDNSKNTLFLQMNSLRAEDTAVYYCARDKSGWYYFDYWGQGTLVTVSS
VL: DIQMTQSPSTLSASVGDRVTITCRASQSISNWLAWYQQKPGKAPKLLIYKASSLESGVPSRFSGSGSGTEFTLTISSLQPDDFATYYCQQYNDYFPITFGQGTRLEIK
B3: 258F5A8 (antibody, V domains shown)
VH: QVQLVESGGGVVQPGRSLRLSCAASGFTFSSYGMHWVRQAPGKGLEWVAVIWYDGSNKYYADSVKGRFNISRDNSKNTLYLQMNSLRAEDTAVYYCARGPYLYSSGWYDYYYYGMDVWGQGTTVTVSS
VL: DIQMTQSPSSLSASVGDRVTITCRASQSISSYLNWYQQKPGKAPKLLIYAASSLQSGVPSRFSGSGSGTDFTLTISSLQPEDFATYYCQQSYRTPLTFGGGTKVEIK
B4: 259G10E11 (antibody, V domains shown)
VH: B3 VH with N69T
VL: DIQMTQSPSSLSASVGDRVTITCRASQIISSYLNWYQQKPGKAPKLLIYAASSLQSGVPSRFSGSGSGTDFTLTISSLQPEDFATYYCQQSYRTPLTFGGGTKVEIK
B5: 113F6C6 (antibody, V domains shown)
VH: QVQLVESGGGVVQPGRSLRLSCAASGLTFSSYGMHWVRQAPGKGLEWVAVIWYDGSNKYYADSVKGRFTISRDNSKNTLYLQMNSLRAEDTAVYYCAREEVLWFGELSYNYYYGMDVWGQGTTVTVSS
VL: DIQMTQSPSSLSASVGDRVTITCRASQGISNYLAWYQQKPGKVPKLLIYAASTLQSGVPSRFSGSGSGTDFTLTISSLQPEDVATYYCQKYNSVPLTFGGGTKVEIK
notes: also called 4-1BB fully human antibody 113F6C6; 113F6F6
B6: 15G10D4 (antibody, V domains shown)
VH: QVQLVESGGGVVQPGRSLRLSCAASGFSFSSYAMHWVRQAPGKGLEWVAIIWYDGSNQYYADSVKGRFTISRDNSKNTLYLQMNSLRAEDTAVYYCARVKQWLVSYFDYWGQGTLVTVSS
VL: EIVMTQSPATLSVSPGERATLSCRASQSVSSNLAWYQQKPGQVPRLLIYGASTRATGIPARFSGSGSGTEFSLIISSLQSEDFAVYYCQQYNNWPTFGGGTKVEIK
B7: 263A11E3 (antibody, V domains shown)
VH: QVQLQESGPGLVKPSETLSLTCAVSGYSISSGYYWGWIRQPPGKGLEWIGSIYHSGSTSYNPSLRSRVTISVDTSKNQFSLKLSSVTAADTAVYYCARDAGGFDYWGQGTLVTVSS
VL: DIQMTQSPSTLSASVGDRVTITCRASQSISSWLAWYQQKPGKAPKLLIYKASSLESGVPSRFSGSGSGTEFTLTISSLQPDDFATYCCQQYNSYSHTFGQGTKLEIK

target: T1, monkey 4-1BB on CHOK1 cells (monkey); experiment: FACS, CHOK1-c4-1BB cells; Ab 2 ug/ml
T1 construct: whole, on cells; also called CHOK1-c4-1BB
Excerpt: (§1) The pIRES plasmid carrying the full-length gene of monkey-derived […] (the preparation method is the same as the preparation method of the pCpC vector carrying the human-derived IgG Fc fragment (hFc) in “Preparation of immunogen A” of the step (1) in Example 1, in which the database accession number of the amino acid sequence of the extracellular region of monkey 4-1BB protein (Phe19-Thr239) is G7PSE7) was transfected into CHOK1 cell line to obtain CHOK1 stable transfected cell line containing monkey 4-1BB (herein referred to as CHOK1-c4-1BB stable cell line). The CHOK1-h4-1BB stable cell line and the CHOK1-c4-1BB stable cell line were expanded and cultivated to 90% confluence in T-75 cell culture flasks. The medium was exhausted, and washed twice with HBSS buffer (Hanks Balanced Salt Solution, purchased from Invitrogen), and then the cells were treated and collected with enzyme-free cell dissociation solution (Versene solution, purchased from Life Technology). The cells were washed twice with HBSS buffer, and after cell counting, the cells were diluted with HBSS buffer to 2×10⁶ cells per ml, and 1% goat serum blocking solution was added, the percentage being the mass percentage. It was incubated on ice for 30 minutes, and then washed twice with HBSS buffer by centrifugation. The collected cells were suspended in FACS buffer (HBSS containing 1% BSA, the percentage was the mass percentage) to 2×10⁶ cells/mL, and 100 μl per well was added to a 96-well FACS reaction plate. The purified 4-1BB antibody test sample obtained in Example 2 was added, 100 microliters per well and incubated on ice for 2 hours. […] It was washed three times with FACS buffer by centrifugation, and 100 μl of fixative [4% (v/v) paraformaldehyde] per well was added to suspend cells, and washed twice with FACS buffer after 10 minutes by centrifugation. The cells were suspended with 100 microliters of FACS buffer, and the results were detected and analyzed with FACS (FACS Calibur, purchased from BD).

Row | average fluorescence intensity [MFI] | Binder
1 | 567 | B1
2 | 1350 | B2
3 | 112 | B3
4 | 107 | B4
5 | 438 | B5
6 | 646 | B6
7 | 93.5 | B7

target: T1, monkey 4-1BB on CHOK1 cells; experiment: FACS, CHOK1-c4-1BB cells; Ab 0.08 ug/ml
Excerpt: as §1

Row | average fluorescence intensity [MFI] | Binder
8 | 166 | B1
9 | 303 | B2
10 | 26.6 | B3
11 | 25.4 | B4
12 | 182 | B5
13 | 156 | B6
14 | 21.1 | B7

target: T2, hFc-tagged human 4-1BB extracellular domain protein (4-1BB-hFc) (human, UniProt Q07011 24-186, limits assumed); experiment: ELISA, coated human 4-1BB-hFc; Ab 2 ug/ml
T2 construct: also called immunogen A; 4-1BB^ECD-hFc; not shown: human IgG Fc fragment (hFc) of the pCpC vector
Protocol: (§2) The purified immunogen A (4-1BB-hFc), monkey 4-1BB-his, and mouse 4-1BB-his obtained in Example 1 [for the preparation method, see step 1 of Example 1, preparation of immunogen A], of which the extracellular domain of monkey-derived 4-1BB protein (purchased from ACRO biosystems), the extracellular domain of mouse 4-1BB protein (purchased from sino biological) or other immune detection point proteins respectively were diluted with PBS to a final concentration of 1.0 μg/mL, then added with […] per well to 96-well ELISA plate. It was sealed with plastic film and incubated at 4° C. overnight. The next day, the plate was washed twice with the plate-washing solution [PBS containing 0.01% (v/v) Tween20] and blocking solution [PBS containing 0.01% (v/v) Tween 20 and 1% (v/v) BSA] was added and blocked at room temperature for 2 hours. The blocking solution was discarded and 100 μl of the purified 4-1BB antibody obtained in Example 2 was added per well. After incubated at 37° C. for 2 hours, the plate was washed 3 times with a plate-washing solution [PBS containing 0.01% (v/v) Tween20]. A secondary antibody (purchased from Sigma) labeled with HRP (horseradish peroxidase) was added, and after incubated at 37° C. for 2 hours, the plate was washed 3 times with a plate-washing solution [PBS containing 0.01% (v/v) Tween20]. 100 μl of TMB substrate was added per well. After incubated for 30 minutes at room temperature, 100 μl of stop buffer (1.0N HCl) was added per well. The A450 nm values were read using an ELISA plate reader (SpectraMax 384plus, Molecular Device).

Row | OD450 nm [OD450 nm] | Binder
15 | 2.76 | B2
16 | 2.67 | B3
17 | 2.8 | B4
18 | 3.61 | B6
19 | 2.74 | B7

target: T3, human 4-1BB, full length, on transfected cells (human, UniProt Q07011 24-255); experiment: FACS, CHOK1-h4-1BB cells; Ab 0.0032 ug/ml
T3 construct: whole, on cells; also called CHOK1-h4-1BB
Excerpt: as §1

T3 sequence (Q07011 24-255): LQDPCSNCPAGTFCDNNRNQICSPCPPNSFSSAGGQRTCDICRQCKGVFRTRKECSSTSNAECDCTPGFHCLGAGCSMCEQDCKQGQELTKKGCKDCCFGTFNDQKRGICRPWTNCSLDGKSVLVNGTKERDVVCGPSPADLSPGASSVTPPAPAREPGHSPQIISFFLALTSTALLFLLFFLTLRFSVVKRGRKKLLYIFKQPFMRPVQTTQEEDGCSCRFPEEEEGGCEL

Row | average fluorescence intensity [MFI] | Binder
20 | 42.7 | B1
21 | 17.8 | B2
22 | 21.1 | B3
23 | 19.4 | B4
24 | 13.7 | B5
25 | 28.8 | B6
26 | 22.9 | B7

target: T2, hFc-tagged human 4-1BB extracellular …; experiment: ELISA, coated human 4-1BB-hFc; Ab 10 ug/ml
Protocol: as §2

Row | OD450 nm [OD450 nm] | Binder
27 | 2.78 | B2
28 | 2.68 | B3
29 | 2.8 | B4
30 | 3.53 | B6
31 | 2.75 | B7

target: T1, monkey 4-1BB on CHOK1 cells; experiment: FACS, CHOK1-c4-1BB cells; Ab 0.00013 ug/ml
Excerpt: as §1

Row | average fluorescence intensity [MFI] | Binder
32 | 3.3 | B1
33 | 3.2 | B2
34 | 2.5 | B3
35 | 2.5 | B4
36 | 2.9 | B5
37 | 3.3 | B6
38 | 2.4 | B7

target: T1, monkey 4-1BB on CHOK1 cells; experiment: FACS, CHOK1-c4-1BB cells; Ab 0.00064 ug/ml
Excerpt: as §1

Row | average fluorescence intensity [MFI] | Binder
39 | 5.6 | B1
40 | 6.6 | B2
41 | 3 | B3
42 | 2.9 | B4
43 | 5.5 | B5
44 | 4.8 | B6
45 | 2.8 | B7

target: T2, hFc-tagged human 4-1BB extracellular …; experiment: ELISA, coated human 4-1BB-hFc; Ab 0.08 ug/ml
Protocol: as §2

Row | OD450 nm [OD450 nm] | Binder
46 | 2.62 | B2
47 | 2.47 | B3
48 | 2.64 | B4
49 | 3.35 | B6
50 | 2.59 | B7

target: T4, monkey 4-1BB-his protein (monkey); experiment: ELISA, coated monkey 4-1BB-his; Ab 0.4 ug/ml
T4 construct: extracellular domain; Bought protein; also called extracellular domain of monkey-derived 4-1BB protein
Protocol: as §2

Row | OD450 nm [OD450 nm] | Binder
51 | 2.44 | B1
52 | 2.54 | B2
53 | 1.32 | B3
54 | 1.18 | B4
55 | 2.14 | B5
56 | 0.14 | B7

target: T2, hFc-tagged human 4-1BB extracellular …; experiment: ELISA, coated human 4-1BB-hFc; Ab 0.016 ug/ml
Protocol: as §2

Row | OD450 nm [OD450 nm] | Binder
57 | 1.25 | B2
58 | 1.06 | B3
59 | 1.29 | B4
60 | 1.72 | B6
61 | 1.23 | B7

target: T2, hFc-tagged human 4-1BB extracellular …; experiment: ELISA, coated human 4-1BB-hFc; Ab 0.0001 ug/ml
Protocol: as §2

Row | OD450 nm [OD450 nm] | Binder
62 | 0.07 | B2
63 | 0.06 | B3
64 | 0.07 | B4
65 | 0.17 | B6
66 | 0.07 | B7

target: T4, monkey 4-1BB-his protein; experiment: ELISA, coated monkey 4-1BB-his; Ab 0.016 ug/ml
Protocol: as §2

Row | OD450 nm [OD450 nm] | Binder
67 | 0.81 | B1
68 | 0.77 | B2
69 | 0.13 | B3
70 | 0.12 | B4
71 | 0.47 | B5
72 | 0.07 | B7

target: T3, human 4-1BB, full length, on …; experiment: FACS on CHOK1-h4-1BB cells, Alexa 488 secondary antibody, average fluorescence intensity
Excerpt: as §1

Row | EC50 (read off the curve) [µg/mL] | Binder
73 | ~0.05 | B1
74 | ~0.2 | B3
75 | ~0.2 | B4
76 | ~0.1 | B5
77 | ~0.05 | B6
78 | ~0.3 | B7

target: T2, hFc-tagged human 4-1BB extracellular …; experiment: ELISA: human 4-1BB-hFc coated at 1.0 µg/mL, antibody titrated, HRP secondary antibody, OD450
Protocol: as §2

Row | EC50 (read off the curve) [µg/mL] | Binder
79 | ~0.02 | B1
80 | ~0.02 | B2
81 | ~0.02 | B3
82 | ~0.02 | B4
83 | ~0.02 | B5
84 | ~0.02 | B6
85 | ~0.02 | B7
